Assay results from PMC6465384.

Target: SpyDock (SpyCatcher2.1 S49C E77A), carbamidomethylated
Assay: ITC; 20 μM carbamidomethylated SpyDock in the cell, 20 injections of 210 μM SpyTag-MBP or SpyTag002-MBP from the syringe; 25 °C; 20 mM HEPES pH 7.0, 150 mM NaCl; 1:1 binding model

Substance	Kd	stoichiometry N
SpyTag002-MBP	73 nM	1
SpyTag-MBP	750 nM	1
